The text below walks through data of the supplement of paper PMC12042874.

This series in a line: amyloid nucleation score (Sup35N fusion, yeast selection) (log enrichment); library NNK1; higher = more nucleation; inactive = no reads after selection. A digest of the protocol:
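The nucleation score equals the log enrichment of output over input reads from DiMSum, centred on the mode score of non-aggregating sequences. It was computed only for sequences with 100 or more input reads. The reads came from Illumina sequencing of plasmid inserts from psi-negative yeast expressing Sup35N fused to peptides of 20 random codons, induced with 100 μM copper sulfate for 24 hours and grown 7 days at 30°C without adenine and uracil.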

± gives the uncertainty stated by the source.

Regarding KLHDGFL, the amyloid nucleation score is -0.96 ± 2.7. The value for EECGLGCAVKA was 0.188 ± 0.19; that for DGSYTWWAFGSIQRCEGLTV was 0.177 ± 0.47.

DIFRIYMWVHCMDRHSDGTV gave an amyloid nucleation score of 2.29 ± 0.27. The value for GVAMCEEWRLMISE was 0.185 ± 0.74; that for GEIGNIPLMKRRTEWQFVVA was 0.25 ± 0.47. For VDRLAEMHTLEWARSVRLSV the value was 0.55 ± 0.92; for TISLL, 0.13 ± 0.43; for FELGWMYSYKMAKLPWYMTC, 0.362 ± 0.99. The value for HSVYL was 1.24 ± 0.3; that for PAGNNYDNNVSNNGTCKEFW was 0.294 ± 0.28; that for GLIYTTSLMRVLNSVVGL was “inactive”. Substance DLTVRPACAGCRLYSEVILD gave an amyloid nucleation score of -0.852 ± 1.6. The value for SWRTCAPTWKVALFIWMCTS was 3.39 ± 0.17; that for LYNFVGSNRIRFASCTQLLC was 1.87 ± 0.38. The value for LMLERFRLLYNEDFGGKVMF was 0.448 ± 0.47; that for VYRTNLSINSTFIWTHELRS was 0.525 ± 0.18. With KISITSTIVFS, the amyloid nucleation score worked out at 1.32 ± 0.33. For SLNRWGVFLCEVALRLADGR the value was 0.542 ± 0.85; for IENRFLGVKLIAGCSHGLWS, -0.241 ± 0.57. For SGTIYWLTDQSDFILLVMRD the value was -1.26 ± 0.47.

Take SILEQILC: the amyloid nucleation score is -0.324 ± 0.22. Turning to NWIVCRPDAGMQPRTNNLIV, the amyloid nucleation score is -0.536 ± 0.58. The value for PRMFIWMCDRDDVSMYQEFL was 0.48 ± 0.55. For RRWRTFLMRCKRNDTSKIRR the value was -1.36 ± 1.2; for MRASTFNYSYELKINVVCYT, -0.918 ± 0.53. With RSMRDLDPTMVFGSVNSLGW, the amyloid nucleation score was 0.166 ± 0.63.

The substance WCGVFESGNRPKSQGKGSKW yielded an amyloid nucleation score of 0.159 ± 0.55. For LMFAISKIKIF the value was “inactive”; for NDTSNPVTLCHFV, 0.408 ± 0.48; for EVNLHLGCVWLVRLCVSDDG, 2.08 ± 0.19.

The substance DDGGLSFGSGNSQSSKKIWL had an amyloid nucleation score of 0.853 ± 0.42.

SKYVYSF: the amyloid nucleation score turned out to be 1.2 ± 0.13. The value for FRYIYMMDMSSYQYVKRGSS was “inactive”.

FRLVYNNFAIT gave an amyloid nucleation score of -1.78 ± 2.4.

IRCRQQARTMYNKMEKMGRG yielded an amyloid nucleation score of -0.433 ± 0.3.

For YWLLLSSENRECVLVTRRHR, the amyloid nucleation score was -0.585 ± 1.7. The value for LVVYRSKQRSYCCM was -0.359 ± 1.9. For ICDRAWRCFKTKSTQPVTVS the value was -0.19 ± 0.36.

Take FVAASNYQAIPYCYRMIYVS: the amyloid nucleation score was -0.102 ± 0.4. Turning to DTGSFFVSVRLSAWVIPPCK, the amyloid nucleation score is -0.063 ± 0.39. MTLRLS displayed an amyloid nucleation score of 0.375 ± 0.41.

LTEIVYTVGAEGTLWRSGAA gave an amyloid nucleation score of 0.298 ± 0.45.

As for VFHFYILMNCESCVTGGVPV, the amyloid nucleation score was 7.938 ± 0.054. For ASLLSGQK the value was 0.358 ± 1.1; for EMTCAWDGNELLFKQRRTIR, “inactive”. The value for MVDMILLGRNFINKRMLCLG was 0.019 ± 0.64; that for RALSH was -0.158 ± 0.74. In turn, SGDWTYFIIMRWDLPFIICR yielded an amyloid nucleation score of 0.265 ± 0.22. As for YAHGGWDLVRRNS, the amyloid nucleation score was found to be 0.232 ± 0.86. The value for WISFYSPCMGRAISLSVVDV was 0.68 ± 0.54; that for DKRECFGLDLEIWSMVVWMW was 0.611 ± 0.8; that for WLTRFRRGAACRDLLWRGER was -0.096 ± 1.4.

For the substance VMLTPRDLGLVPIGLDHVRG, the amyloid nucleation score was -0.236 ± 0.38. For MYYDMLSCFGEVKRS the value was -0.183 ± 0.79. The value for VKFCCFGLLCELYSGHSGRM was 1.33 ± 0.15; that for HRWTLMEVYITGIALKYVVY was -0.58 ± 0.76; that for EWRFCKS was -0.335 ± 0.33. In turn, IEAYYGIPDVKHMLVYLRQD displayed an amyloid nucleation score of -0.284 ± 0.7. The value for ENVCFLTKM was 0.423 ± 0.26.

For QGGRVDGSPPTVYA, the amyloid nucleation score came to 0.555 ± 0.46. For CKRNQTTVSVVGWFI the value was -0.227 ± 1.2; for PWLKVQFVKREVTIDFRVRV, “inactive”.

Take QVRLKEFLYSLKCDVRYGST: the amyloid nucleation score result was “inactive”. For WSRCSFFGHRYIKSSLLIWG the value was -0.139 ± 0.44; for TFYNFAMSFKEVCCCMSWRG, 7.143 ± 0.058; for YSPFYYVDI, 1.61 ± 0.42. The value for SILIRLIISTINCCVNNVAF was 5.43 ± 0.083; that for DLCQEPIG was -0.379 ± 0.3; that for LVVQLYS was -0.336 ± 0.62. For TGYRFLSIIIAAADSDCELS the value was -0.706 ± 1.2. With PNYDVMSLYRTNYGNYSHSV, the amyloid nucleation score was 0.471 ± 0.38. CIYWALGRAMRLPSGTGARG came in with an amyloid nucleation score of 0.099 ± 0.95. For RRVGWLRTRSG the value was 0.731 ± 0.41; for HIQRYMWKGGLEFVLIVRRA, 1.2 ± 0.4; for IRDRMLMCDGKRLNTLLEHI, 0.145 ± 0.49. The value for TLLIMLLYKSTILCVQPDLM was 0.032 ± 0.6; that for YSALVFRYGVISKGDLVTRR was 0.123 ± 0.36; that for AWYWAMAIMRVSIKVWPLLL was -0.713 ± 0.7. The substance HCNIMIDSTSLFNGGLVFYN gave an amyloid nucleation score of 4.83 ± 0.059. In the case of TFYLFSRGSSLEIWG, the amyloid nucleation score was 5.72 ± 0.059.

As to SKCIWDFGYVSPWAISS, the amyloid nucleation score entry is “inactive”. The value for IDKGLHALLSTLLSINVSFC was 2.95 ± 0.094. For SHRSFFCSSLWMNYYCLISS the value was “inactive”; for KLRRDSFVFQVKFHLNKGML, -0.384 ± 0.46; for LAGQVVRRTKTLWHAPAHPY, 0.374 ± 0.36. The value for AALVCPRFLTSKANFVPSKG was “inactive”; that for IYLPRNVFRLTWFYLSQSLA was 0.639 ± 1.1; that for LLISDAVVYLFWTPENHSTW was 1.2 ± 0.56. With MLWTCKDNLCKDMTHVWSIY, the amyloid nucleation score result is “inactive”. The value for RNYPTRPYRGVINHLGFCRV was -1.06 ± 0.57. The substance SAASPFFFSDCGWPSGILNY returned an amyloid nucleation score of 1.26 ± 0.67. NSRSGLMNLVEKSLLYKMLY showed an amyloid nucleation score of -0.007 ± 0.48.

For FVECSERRGSKGSLYIDEVS, the amyloid nucleation score is -0.629 ± 0.73.

Consider RTCSKHYIWYKALIGFALGN, for which the amyloid nucleation score was -0.27 ± 0.33. The value for LCDGFILLSNVLLGPMIYDW was 0.561 ± 0.27; that for QTEQMFGRVDIVYLPAIWSS was 0.447 ± 0.45. The value for TSFLWLLTFERFD was “inactive”; that for LSFLSSVSDLIKLSSIFYGY was -0.264 ± 0.37.

With YLVAVVIGSIPAPSRMYSVA, the amyloid nucleation score was found to be 0.904 ± 0.51.

Substance CHYLVLD showed an amyloid nucleation score of -0.186 ± 0.74. For APPLSFEFL the value was 3.06 ± 0.092; for IHSAYLNAQRKVWATAKFKW, -0.639 ± 0.35.

On to GGPQLKVCSFGLFWWFIEVV, for which the amyloid nucleation score result is “inactive”.

In turn, DTKCMMENRAIVMFCIQGKH displayed an amyloid nucleation score of 0.827 ± 0.3.

On to FFILSFNIRIYIFEVVTFLK, for which the amyloid nucleation score is 0.555 ± 0.52. Consider QAKPIIGRRTPLNDFNSPLY, for which the amyloid nucleation score stood at 0.15 ± 0.37. The substance RLKGSPHVLL came in with an amyloid nucleation score of -1.69 ± 1.2.

Turning to YDIRL, the amyloid nucleation score was -0.376 ± 0.65. For LSTPYHQWLLAGRSRWASRK the value was 0.609 ± 0.49; for VPIMYNFGINDVGSVCDCTD, 7.259 ± 0.053; for SSPRTLRGLIYGRIKYYVLE, 1.84 ± 0.35. For FISPLSISLHQWVLSSKYRE the value was 7.394 ± 0.044; for TDPLSYTFVTSPVMVTRGSS, -0.942 ± 0.52; for CAIFFTASLCVCRLSAACEQ, 1.75 ± 0.43. In the case of LMWCGSANMY, the amyloid nucleation score came out at 0.632 ± 1.2.

IRDDCTYYVSAE yielded an amyloid nucleation score of 0.634 ± 0.23. On to SGLGTNKRSTPWYHSRFEGQ, for which the amyloid nucleation score came to 0.036 ± 0.47. For the substance IWVSGWNYVGRVVVEYQRLS, the amyloid nucleation score stood at 0.444 ± 1.4. The value for TMSSSNQSQMFPSVIYSEGH was -0.209 ± 0.9; that for STHSDGVGML was -0.805 ± 1.2; that for SDFGI was -0.647 ± 0.64. The value for ASLLMLLVGRKICLAQVNKG was 0.412 ± 0.51; that for KVRIQGPTNVCVVRTMCGWF was 5.98 ± 0.056. For VTDFVALFVIGTGPVVGLRW the value was 1.27 ± 0.43. In the case of YHNLVLQSICDCSSLADLGW, the amyloid nucleation score was determined as 6.66 ± 0.059. EIYGKCLNPIGL: the amyloid nucleation score worked out at 0.53 ± 0.52. For RFNTEKRLALNNNMPLRWFS the value was -0.125 ± 1.7. Regarding IQAMGGRMSRAV, the amyloid nucleation score was -0.073 ± 0.77. For NVISRSLVMYMYKEERPASA the value was 0.031 ± 0.27.

The substance MGLSNSDADGRTLRNEHVKS registered an amyloid nucleation score of -1.35 ± 2.1. As to RIGFPVRYEEFALRFIYILE, the amyloid nucleation score is -0.261 ± 0.72. For TTPIEAV the value was -0.178 ± 1.2; for NIHGDGWSYVLNAIGSELD, 0.154 ± 0.43.

The substance ISGTRLVLGLDDSR gave an amyloid nucleation score of 0.069 ± 0.37.

Regarding CSGLNVSLSRRQVVVLSV, the amyloid nucleation score was -0.632 ± 0.33. The value for CPLTGDRTAVRHMRKSAFAE was -0.525 ± 0.4; that for FFLAV was -0.158 ± 0.64.
